Assay results published in PMC5028032, “Linkage between Fitness of Yeast Cells and Adenylate Kinase Catalysis” (PLoS ONE, 2016).
Substitutions are numbered along the chain they refer to. Names and notes keep the numbering of the source.

B1: Adkeco (Escherichia coli K-12; INS40STGDMLSAAVK/R36S) (protein)
chain: MRIILLGAPGAGKGTQAQFIMEKYGIPQISTGDMLSAAVKSTGDMLSAAVKSGSELGKQAKDIMDAGKLVTDELVIALVKERIAQEDCRNGFLLDGFPRTIPQADAMKEAGINVDYVLEFDVPDELIVDRIVGRRVHAPSGRVYHVKFNPPKVEGKDDVTGEELTTRKDDQEETVRKRLVEYHQMTAPLIGYYSKEAEAGNTKYAKVDGTKPVAEVRADLEKILG
B2: Adkeco (Escherichia coli K-12; G56C) (protein)
chain: MRIILLGAPGAGKGTQAQFIMEKYGIPQISTGDMLRAAVKSGSELGKQAKDIMDACKLVTDELVIALVKERIAQEDCRNGFLLDGFPRTIPQADAMKEAGINVDYVLEFDVPDELIVDRIVGRRVHAPSGRVYHVKFNPPKVEGKDDVTGEELTTRKDDQEETVRKRLVEYHQMTAPLIGYYSKEAEAGNTKYAKVDGTKPVAEVRADLEKILG
B3: Adkeco (Escherichia coli K-12; R36A) (protein)
chain: B2 chain with R36A, C56G
B4: Adk1yeast (Saccharomyces cerevisiae S288C) (protein)
chain: SSESIRMVLIGPPGAGKGTQAPNLQERFHAAHLATGDMLRSQIAKGTQLGLEAKKIMDQGGLVSDDIMVNMIKDELTNNPACKNGFILDGFPRTIPQAEKLDQMLKEQGTPLEKAIELKVDDELLVARITGRLIHPASGRSYHKIFNPPKEDMKDDVTGEALVQRSDDNADALKKRLAAYHAQTEPIVDFYKKTGIWAGVDASQPPATVWADILNKLGKD
notes: full-length wild type, recombinant, 15N-enriched, purified as previously described

Tests used:
[1] = substrate: Nc1ncnc2c1ncn2[C@@H]1O[C@H](COP(=O)(O)OP(=O)(O)OP(=O)(O)O)[C@@H](O)[C@H]1O; assay: purified protein; conditions: 300 μM AMP constant, 2 mM MgCl2, 80 mM KCl, 100 mM Tris pH 7.5, 20°C
[2] = substrate: Nc1ncnc2c1ncn2[C@@H]1O[C@H](COP(=O)(O)OP(=O)(O)OP(=O)(O)O)[C@@H](O)[C@H]1O; assay: purified protein; format: biochemical, Saccharomyces cerevisiae; conditions: 300 μM AMP constant, 2 mM MgCl2, 80 mM KCl, 100 mM Tris pH 7.5, 20°C
[3] = 11 residues STGDMLSAAVK inserted between Lys40 and Ser41

Row | Protein | Km [1] [µM] | kcat [1] [s⁻¹] | kcat/Km [1] [M⁻¹ s⁻¹] | further results
1 | B1 | – | – | – | Km [1, 3]: 127 ± 30 µM; kcat [1, 3]: 2 s⁻¹; kcat/Km [1, 3]: 20000 M⁻¹ s⁻¹
2 | B2 | 34 ± 2 | 36 | 1.04e+06 | –
3 | B3 | 193 ± 7 | 19 | 100000 | –
4 | B4 | – | – | – | Km [2]: 71 ± 18 µM; kcat [2]: 520 ± 32 s⁻¹; kcat/Km [2]: 7.29e+06 ± 470000 M⁻¹ s⁻¹
